Results taken from PMC8041999.

B1: FLAG-tagged KIR2DL3, full-length, wild type, on 293T cells [human] / HLA-C*07:02-RL9 tetramer (phycoerythrin-conjugated) [modified: biotin (enzymatically, with biotin ligase)] [human | not stated] (parent)
chain 1: HEGVHRKPSLLAHPGPLVKSEETVILQCWSDVRFQHFLLHREGKFKDTLHLIGEHHDGVSKANFSIGPMMQDLAGTYRCYGSVTHSPYQLSAPSDPLDIVITGLYEKPSLSAQPGPTVLAGESVTLSCSSRSSYDMYHLSREGEAHERRFSAGPKVNGTFQADFPLGPATHGGTYRCFGSFRDSPYEWSNSSDPLLVSVTGNPSNSWPSPTEPSSETGNPRHLHVLIGTSVVIILFILLLFFLLHRWCCNKKNAVVMDQEPAGNRTVNREDSDEQDPQEVTYAQLNHCVFTQRKITRPSQRPKTPPTDIIVYTELPNAEP
chain 2: not shown
chain 3: not shown
chain 4: RYRPGTVAL
B2: FLAG-tagged KIR2DL3, full-length, wild type, on 293T cells [human] / HLA-C*03:04-GL9 tetramer (phycoerythrin-conjugated) [modified: biotin (enzymatically, with biotin ligase)] [human] (parent)
chain 1: B1 chain 1
chain 2: not shown
chain 3: not shown
chain 4: GAVDPLLAL
B3: FLAG-tagged KIR2DL2, full-length, wild type, on 293T cells [human] / HLA-C*03:04-GL9 tetramer (phycoerythrin-conjugated) [modified: biotin (enzymatically, with biotin ligase)] [human] (parent)
chain 1: HEGVHRKPSLLAHPGRLVKSEETVILQCWSDVRFEHFLLHREGKFKDTLHLIGEHHDGVSKANFSIGPMMQDLAGTYRCYGSVTHSPYQLSAPSDPLDIVITGLYEKPSLSAQPGPTVLAGESVTLSCSSRSSYDMYHLSREGEAHECRFSAGPKVNGTFQADFPLGPATHGGTYRCFGSFRDSPYEWSNSSDPLLVSVIGNPSNSWPSPTEPSSKTGNPRHLHILIGTSVVIILFILLFFLLHRWCSNKKNAAVMDQESAGNRTANSEDSDEQDPQEVTYTQLNHCVFTQRKITRPSQRPKTPPTDIIVYAELPNAESRSKVVSCP
chain 2: not shown
chain 3: not shown
chain 4: GAVDPLLAL
B4: FLAG-tagged KIR2DL2, full-length, wild type, on 293T cells [human] / HLA-C*07:02-RL9 tetramer (phycoerythrin-conjugated) [modified: biotin (enzymatically, with biotin ligase)] [human | not stated] (parent)
chain 1: B3 chain 1
chain 2: not shown
chain 3: not shown
chain 4: RYRPGTVAL

Variants of: B1
Test: flow cytometry, HLA tetramer staining of transfected 293T cells
Settings: with HLA-C*07:02-RL9 tetramer (phycoerythrin-conjugated) [modified: biotin (enzymatically, with biotin ligase)] [human | not stated]; percentage tetramer+ normalised to percentage FLAG+; read off a plot

Question: chain 1 F181A was tested. Which ratio to parent did it give?
Answer: The ratio to parent was 0.06.

Variants of: B2
Test: as above
Settings: with HLA-C*03:04-GL9 tetramer (phycoerythrin-conjugated) [modified: biotin (enzymatically, with biotin ligase)] [human]; percentage tetramer+ normalised to percentage FLAG+; read off a plot

Question: chain 1 F181A was tested. Which ratio to parent did it give?
Answer: The ratio to parent was 0.07.

Variants of: B3
Test: as above
Settings: with HLA-C*03:04-GL9 tetramer (phycoerythrin-conjugated) [modified: biotin (enzymatically, with biotin ligase)] [human]; percentage tetramer+ normalised to percentage FLAG+; read off a plot

Question: With chain 1 F181A as the variant, how does the ratio to parent read?
Answer: Its ratio to parent is 0.05.

Variants of: B4
Test: as above
Settings: with HLA-C*07:02-RL9 tetramer (phycoerythrin-conjugated) [modified: biotin (enzymatically, with biotin ligase)] [human | not stated]; percentage tetramer+ normalised to percentage FLAG+; read off a plot

Question: With chain 1 F181A as the variant, how does the ratio to parent read?
Answer: Its ratio to parent is 0.02.
